Laboratory results taken from patent publication US20190382462A1 (published 2019).
Where no end group is shown, it is not given here.

Target: HRP-conjugated protein-A (UniProt P38507 37-477, HRP conjugate)
Experiment: ELISA: HRP-protein A added to immobilized biotinylated CRF in the absence of CRFBP-Fc
From the text: Biotinylated CRF was immobilized on an avidin-coated ELISA plate. […] OD=optical density.

B1: Biotinylated CRF (corticotropin-releasing factor) (peptide, UniProt P06850 154-194, looked up)
peptide: SEEPPISLDLTFHLLREVLEMARAEQLAQQAHSNRKLMEII
modifications: ends and bridges not checked; also: biotinylated, site not given here
notes: Immobilized on an avidin-coated ELISA plate; also called corticotropin-releasing hormone; CRH
  binding result: no binding
